In patent US10597674B2, “HPPD variants and methods of use” (BASF Agricultural Solutions Seed, US LLC, priority 2015, dated 2020):
Where two headings read alike, the source gives them in different places.

What was measured:
[1] = test system: HPPD polypeptides (wild-type SEQ ID NO:1 and mutants); conditions: high substrate concentration; for Residual activity: kapp normalized to kapp without inhibitor; for Residual turnover: total change in signal normalized to no inhibitor
[2] = test system: transgenic soybean T0 events; assay: Additional greenhouse trials of T0 soybean events, leaf damage score 0-100 as percentiles; assay type: in vivo; conditions: wild-type plants, 300 g AI/ha, five days, scale 0-100
Outline: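 Independent T0 events (21 to 94 per construct, single cassette insertion) expressing mutant HPPD were sprayed with HPPD inhibitor herbicide in the greenhouse. Leaf damage scored 5 days after application from 0 (no damage) to 100 (complete bleaching). Scores reported as percentile distributions (25th, median, 75th) per construct.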

[3] = test system: transgenic T1 soybean events; assay: Field trials of T1 soybean events, leaf damage eight days after application; assay type: in vivo; conditions: wild-type or segregated T1 soybean plants without tolerant polypeptide; 210 g/ha isoxaflutole or 150 g/ha Cmpd. 1; eight days
Outline: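 T1 soybean events carrying the HPPD inhibitor tolerant polypeptide, field-grown and sprayed with isoxaflutole 210 g/ha or Cmpd 150 g/ha. Leaf damage scored eight days after application; good tolerance defined as ≤15% damaged leaf area, reported as event frequency.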

[4] = in the presence of Cmpd. 1, 15 μM inhibitor
[5] = in the presence of Cmpd. 2, 15 μM inhibitor
[6] = in the presence of diketonitrile (DKN), 60 μM inhibitor
[7] = in the presence of mesotrione (MST), 60 μM inhibitor

**Q.** Which results are given for CSc1c(C(F)(F)F)ccc(C(=O)Nc2nnnn2C)c1Cl [Cmpd. 1, 2-chloro-3-(methylsulfanyl)-N-(1-methyl-1H-tetrazol-5-yl)-4-(trifluoromethyl)benzamide, reference compound]?
**A.** Residual activity [1, 4]: 6%; Residual turnover [1, 4]: 6%; Residual activity [1, 5]: 8%; Residual turnover [1, 5]: 8%; Residual activity [1, 6]: 7%; Residual turnover [1, 6]: 8%; Residual activity [1, 7]: 6%; Residual turnover [1, 7]: 8%; damage score [2]: 95-100; leaf damage [3]: 100%
